Values quoted from earlier work, collected in paper PMC10229114.

Legend:
SLy1 SAM (Homo sapiens) = SLy1 SAM (Homo sapiens) (UniProt O75995)
SDF-1α (Homo sapiens) = SDF-1α (Homo sapiens) (UniProt P48061)

Sequence of SLy1 SAM (O75995 252-316): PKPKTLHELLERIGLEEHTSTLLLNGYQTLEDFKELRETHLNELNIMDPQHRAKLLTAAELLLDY
Sequence of SDF-1α (P48061 24-88): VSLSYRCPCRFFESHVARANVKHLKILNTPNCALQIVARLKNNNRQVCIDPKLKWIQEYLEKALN

Substance: SLy1 SAM (from UniProt O75995)
- Kd (SLy1 SAM (Homo sapiens)): 117 µM

Substance: SDF-1α (from UniProt P48061)
- Kd (SDF-1α (Homo sapiens)): 150 µM
